The text below walks through data of the DeepSol protein solubility set.

The nature of this data set: soluble on expression in E. coli; label from the status in PepcDB or PDB records.
Regarding “GAEDHANHEHDDEMSAAAAHGVESLIYRRDTPFHPVRFNDWLDDWDGAIVRAKGFAWVASRPETVLGVSQAGPSVQAGPIGEWGNDDPSTRLVFIGQEMDGDALIGELDDCLATDKERTETFASDPFPREG”, the “soluble on expression in E. coli” value was “not soluble”.

In the case of “MDNLETDRLILINYTLEMIQATINGTEALEKTSGYHVSPDWPGIDFFFYLPYVLENVKKDDKMIKWTRLVVLKTENKIIGEIGGQGNPDETGEIEIGYSIVPDYQNKGYMSEALISMIDWLEHQPVINRIFARCYEQNEASIQVLKHNHFVHIKEKDTEEKQGRVMMWEYPIKQT”, the “soluble on expression in E. coli” value is reported as “not soluble”. Then “MKLSKDTTALLKNFATINSGIMLKSGQFIMTRAVNGTTYAEANISDVIDFDVAIYDLNGFLGILSLVNDDAEISQSEDGNIKIADARSTIFWPAADPSTVVAPNKPIPFPVASAVTEIKAEDLQQLLRVSRGLQIDTIAITVKEGKIVINGFNKVEDSALTRVKYSLTLGDYDGENTFNFIINMANMKMQPGNYKLLLWAKGKQGAAKFEGEHANYVVALEADSTHDF”, with “soluble”; and “MATPETRRRPNILVTGSPGTGKSTLGQQVAEKLGFVFIEVSKEVRENNLQGDFDEQYNCHVLDEDKLLDHISDRLDSDEGGIVVDYHGCDLFPERWFDVVVVLRCPTEKLYDRLQSRGYSEFKIKENVECEIFGTLLEEARESYSEDIVHELQSETTEQMEENLERICELAGEFKNEHTMEQ”, with “not soluble”. Take “KKTEWSREEEEKLLHLAKLMPTQWRTIAPIIGRTAAQCLEHYEFLLDKAAQRD”: the “soluble on expression in E. coli” value was “soluble”. “MQSWYLLYCKRGQLQRAQEHLERQAVNCLAPMITLEKIVRGKRTAVSEPLFPNYLFVEFDPEVIHTTTINATRGVSHFVRFGASPAIVPSAVIHQLSVYKPKDIVDPATPYPGDKVIITEGAFEGFQAIFTEPDGEARSMLLLNLINKEIKHSVKNTEFRKL”: the “soluble on expression in E. coli” value is on record as “soluble”. Regarding “MSQTLKQLAMAKMAGFRHKTVVVPEWEGVKVVLREPSGEAWLRWQEVVKGGGDDENVSVSEKAHRNLCADVVLFIDVLCDTDKQPVFSVDEEEQVREIYGPVHSRLLKQALDLINNADEAREKSQPPA”, the “soluble on expression in E. coli” value is “not soluble”.

As to “MKVTDVRLRKIQTDGRMKALVSITLDEAFVIHDLRVIEGNSGLFVAMPSKRTPDGEFRDIAHPINSDMRQEIQDAVMKVYDETDEVIPDKNATSDNEESDEA”, the “soluble on expression in E. coli” value is on record as “soluble”. “MGSDKIHHHHHHMEQATRTIYSEYAAYPETQGIIAVEKRQPRDSLTDQFDVLLLVITRDPSVEWTVKHYRLNTLRVSLHLVHEQVLSRWLILNANRRAVHWVSEGTIIFERNDYLTDLKKQLRNFPETERCLQMSLSFAKLLRRFQDGRNLFSRGNYYDAYTHVHHALHHLARLSVLEKGAHPEVVVWEQARLDDPDVYKLYEQLLLSEETLEQRIHLALIGLEHLLQSKVLSGGKYLFEVMRERDRPWTMHELMEESRLTELKVDLGSLVDFFIRKGLIRISYQRTKGLGVELVTYEPVV”: the “soluble on expression in E. coli” value was “not soluble”. As for “MSLKYGHVAWIQQILDGSYADAMNTLKNITVDDSKKGESLSECELHLNVAKLSSLLVEKDNLDINTLRKIQYNLDTIDAEKNISNKLKKGEVQICKRFKNGSIREVFNILVEELKSTTVVNLSDLVELYSMLDDEESLFIPLRLLSVDGNLLNFEVKKFLNALVWRRIVLLNASNEGDKLLQHIVKRVFDEELPKNNDFPLPSVDLLCDKSLLTPEYISETYGRFPIDQNAIREEIYEEISQVETLNSEGHHHHHH”, the entry is “not soluble”; as for “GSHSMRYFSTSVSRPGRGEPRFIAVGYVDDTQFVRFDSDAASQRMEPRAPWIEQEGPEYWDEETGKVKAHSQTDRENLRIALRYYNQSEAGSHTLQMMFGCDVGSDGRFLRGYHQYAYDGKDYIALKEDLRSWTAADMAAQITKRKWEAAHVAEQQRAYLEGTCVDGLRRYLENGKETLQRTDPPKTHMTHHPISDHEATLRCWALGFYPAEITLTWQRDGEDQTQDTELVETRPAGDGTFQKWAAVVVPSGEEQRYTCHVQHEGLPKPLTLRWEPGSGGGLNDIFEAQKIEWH”, “soluble”. Regarding “MAKENYSDPNGKLLNSITTFEVNGEEVKLSGNIIRDYLVSGNAEVTDQEIIMFLQLCKYQKLNPFLNEAYLVKFKNTKGPDKPAQIIVSKEAFMKRAETHEQYDGFEAGIIVERNGEVVEIEGAVSLDKDKLLGGWAKVFRKDRSRPVSVRISEREFNKRQSTWNAMPLTMMRKTAVVNAMREAFPDNLGAMYTEEEQGSLQNNETSVQEEIKQNANTEMLDIPAQQIEVPDFKEIREPEHVEMPPIYDEQPSTPPARPY”, the “soluble on expression in E. coli” value was “not soluble”. As for “MSGFIPGSTTGSMLTAISDTHGTDNHRLTGRTLDAVREADHVLHAGDFMTEQVLDAIDAESDELTGVVGNNDRPAVRARLSDVATVSWEELTIVVVHGHEHTETALGMLARQENADIVVVGHSHKPVLTDFGGWTLVNPGSYADPRRYQPAHAELDVMAGDVRVRLRSPDGTPISTTIVERLEHHHHHH”, the entry is “not soluble”; as for “MNYNPEEQFRCTIIRGKAKNMLDNLLPAYANIIDDICPCDKASFVKDFNNRLIEILGEETTKKTLDNHRTEIAGKLFGMFYEDDEVIFPSGRTNKYIEDSDQPAFFKDICFKFQFPNGMDKLDKVIEKVGAKIQIRQFPYILQVLLTADNNNIQLSKDDIAYYVLNSLQVLQGKIKPIEVIEKIIEDRSNDITKKVRHPGKETSYSMQHIREQLNYLELANLIRIDGNLVKLNYREAENINYIAQFWGNKPEFNAYKYDFTSEDDKKSFFKDWQQYYSNVNSHKS”, “soluble”; as for “MGSDKIHHHHHHMNVLYVTVDALRADHVTPELMPNVSGFVDRSIEYERCYANGPGTPWSFPALLGSQYSGANDGVGIPGEDDSRPTLAEVLRDEGYETAGFTDNHFASSDYNYDRGMTTMFDAGATSSEKRLKQAVRKRLDHDGTLYQMLLRGHHLIDDLLVKIQGRDTRFTRAETLIDSLVDWIDERNDQWFAWLHPMDTHAPYEAPDDYQEQFLDEPIPRRRSQKLARKATHHPDELSDDEWELQQQLYKAECSYLDDQIGRLLDSFPEPERENTLLVFTADHGEMHGEHGLGGHPQQFWEEVIHVPCAISAPGFEATTVNEQAALIDIPPTILDAVGIDAPEYWDGMSVLPDEGTVQEREYVFVDVESELNRNHAGVRRSDNWKLMRHDDEGELLLDLDTNPEEDPEQTRLNDAPEAYRALTDSLDNHLDEMERRRSGETSGIEDEELIEDHLRELGYLE”, “not soluble”. On to “MGSDKIHHHHHHMPVLNSVANTVPTRFRFDLLTHDDNDRLQSDSLCPVGFTSLGREPVRLKFGGTKIRDFCVWKTESATGFEARPRVVSDLVTIRFPISGGLARKDGREEVNIDRGQGVIIPFRDMEYERTSRSASMISCTIASVSIFQKMQALYGEERSTFASFVPVVDVNIPQIRIFRTALLRLHDNLQQHGDHNPLSFPIVEELLVFHLLSCWPTTAAVRPTADQVNNRVLRNALDYIEANLASPITVSEIAFAAGVSVRSLQIAFRESKGITPVQYIIECRLDRVHDALKRGFAPGYISQIANAWGFQHHADFSRRYRKRFGETPKQTRTR”, for which the “soluble on expression in E. coli” value is “not soluble”. As for “MQEDTLTSRGNMPYSLNVLIPLSCDLRPPVPQAIHAGRVDHRELGFVHPVSPGDVVAEVLVPAGEHFSPEVAQHLIGEGCALGDASTEHTEGQGVPVVATRSGHLDWDERALAVRDTLVVDEDVTYHVGNIRYFGDLIVRGMVRVAFRVRARSLLVEGLIEGAFIECERLEARGGVKAGGSGRLRVRETVAAPFMENAIVHAGSHVVVSGSSLHNEIKSNASVQVAERLIGGMTAARDSITVGERLGGGMSTLTRVQVGYDPFLNTAVHRLEVQAQHVEEVMLSCAKLAGRGGRLGDKAKARGERYAAALKRLRRKLADLLARLDATSTLETCTIDVRGEVRPGVEICIGPARLMNQDFLKNVRFSYCDGAVVATHPAGRTALEHHHHHH”, the entry is “not soluble”; as for “AIAEAKTLGIATPRKPVLSVSARKLKDNAADWHNLILKWDSLSDKGFTTASSIANLKVSLLSKEKVELESSSPASMEEEEKTNLDYDKGLEALCEELQAILDGLTKIQMKMEKLSSTTKGICELENYHYREESSRPPLFHTWPTAFFYEVSRRLSEAYKKELLLKHTIGAELAHTADRNLSLTYLSMWLHQPYIESNSKLQLESMLLETGHRAL”, “soluble”; as for “MENTETLIVEQLKIGNENAYRYIYDHHYALLCYVANGYLKDQFLSETIVGDTIFHLWEIRETLDISVSIRSYLLRAVRNRCINYLNSEREKREIAFSALMPDEITDDKIILSDSHPLGILLERELENEIYKAIDKLPDECRRVFAKSRFEGKSYEEISGELGISINTVKYHIKNALASLHAHLSKYLISLLLFFFR”, “not soluble”.

As to “MSDYQVLLYYKYTTIDDPETFAKEHLAACKEMELKGRILVATEGINGTVSGTVEATNKYMDYMANDARFADMVFKIDAADAHAFKKMHVRPRAEIVSLSLEEDVNPLEVTGTYLEPSEFREALLDEDTVILDARNDYEFDIGHFRGAVRPDIQNFRELPGWIEDNREQLADKKIVTYCTGGIRCEKFSGWLKTAGFDDVSQLHGGIATYGKNEETKGELWDGQMYVFDERIAVPINQVNPTIVGKDYFDGTPCERYINCANPYCNKQILASIENEKKYLRSCSHDCRVHPANLYTKNLSKEEFTERLQAIDETLPEMVQ”, the “soluble on expression in E. coli” value is listed as “not soluble”. Turning to “MLVDGKLVCVTGAGGYIASWIVKLLLERGYTVRGTVRNPTDPKNNHLRELQGAKERLTLHSADLLDYEALCATIDGCDGVFHTASPMTDDPETMLEPAVNGAKFVIDAAAKAKVKRVVFTSSIGAVYMNPNRDTQAIVDENCWSDLDFCKNTKNWYCYGKMLAEQSAWETAKAKGVDLVVLNPVLVLGPPLQSAINASLVHILKYLTGSAKTYANLTQVYVDVRDVALGHVLVYEAPSASGRYILAETALHRGEVVEILAKFFPEYPLPTKCSDEKNPRAKPYKFTTQKIKDLGLEFKPIKQSLYESVKSLQEKGHLPLPQDSNQNEVIIES”, the “soluble on expression in E. coli” value is “soluble”. Then “MENGIGYIPLLNVSHKHGGTHFYRKNSGTCDLCEKNFKTSEELVEHKKNYPRADVEKALSVYKEKDTIYKCLQCSGEFRLKEDFDYHQELHKRLGELKSASSNKSEANKDDESDIDSSFEIIEN”, with “not soluble”. Then “MGHHHHHHSHMLFEEAFVHLKPQVCLPLWISWAEWSEGAKSQEDTEAVFKKALLAVIGADSVTLKNKYLDWAYRSGGYKKARAVFKSLQESRPFSVDFFRKMIQFEKEQESCNMANIREYYERALREFGSADSDLWMDYMKEELNHPLGRPENCGQIYWRAMKMLQGESAEAFVAKHAMHQTGHL”, with “not soluble”.

“MGSDKIHHHHHHMLHATAWRSALFTPTENSATSRDRADCGGIGGMSAAILLSRQGIQVDLVELNPLWAPGGAGITISGPTLRGLREVGVADEVLASGGFWNAVDVCDANSNLTVTVPIAPAVGADELPGVAGIMRTTLAEILGRATRKADTNARLGVTFETLTQDAEGVEVSFNDGSRARYDLVIGADGINSPVRKYVKPEFPGPPFTGQRSWRAVVPRLQENSLMYMGKTTKAGLNPISQTECYLFVLDKREGMDFIAPEQWPMMLAELLEEFGGAVGEFRRGPLDGSLMNHRLLYRPLAGHMINGPWHKGRIVLLGDAVHATTPHLASRAGIAVEGAIVLSEELARRRSLEGAFIAYAGRHYDRARLVVSASGRLGEIERESGSREEHTRIMIETQQALRAPI”: the “soluble on expression in E. coli” value is “not soluble”.
